Values of other authors, collected in US6440936B2, “Anti-protozoan methods and materials” (Xoma Corporation, priority 1994, dated 2002).

Legend:
[1] = system: T. gondii; conditions: 0.25 μg/ml in cyst medium
[2] = system: Staphylococcus aureus (four strains), Staphylococcus epidermidis, Streptococcus faecalis, Bacillus subtilis, Micrococcus lysodeikticus, Listeria monocylogenes; conditions: 10^−6 M or 160 μg/ml; pH 7.0 or 5.5
[3] = system: Candida albicans and Candida parapsilosis; conditions: 10^−6 M; Ph 7.0 or 5.5
[4] = system: human, rabbit and sheep red blood cells and several human tumor cell lines

Row | Molecule | anti-T. gondii effect [1] | toxic effect on gram-positive organisms [2] | toxic effect on fungi [3] | toxicity to higher eukaryotic cells [4]
1 | C[C@@H]1[C@H](O)[C@@H](C)/C=C/C=C/C=C/C=C/C=C/C=C/C=C/[C@H](O[C@@H]2O[C@H](C)[C@@H](O)[C@H](N)[C@@H]2O)C[C@@H]2O[C@](O)(C[C@@H](O)C[C@@H](O)[C@H](O)CC[C@@H](O)C[C@@H](O)CC(=O)O[C@H]1C)C[C@H](O)[C@H]2C(=O)O [Amphotericin B] | does not have a significant anti-T. gondii effect | – | – | –
2 | BPI: protein isolated from the granules of mammalian polymorphonuclear neutrophils; human BPI approximately 55 kD (protein, UniProt P17213 32-487, looked up) Bactericidal …: VNPGVVVRISQKGLDYASQQGTAALQKELKRIKIPDYSDSFKIKHLGKGHYSFYSMDIREFQLPSSQISMVPNVGLKFSISNANIKISGKWKAQKRFLKMSGNFDLSIEGMSISADLKLGSNPTSGKPTITCSSCSSHINSVHVHISKSKVGWLIQLFHKKIESALRNKMNSQVCEKVTNSVSSELQPYFQTLPVMTKIDSVAGINYGLVAPPATTAETLDVQMKGEFYSENHHNPPPFAPPVMEFPAAHDRMVYLGLSDYFFNTAGLVYQEAGVLKMTLRDDMIPKESKFRLTTKFFGTFLPEVAKKFPNMKIQIHVSASTPPHLSVQPTGLTFYPAVDVQAFAVLPNSSLASLFLIGMHTTGSMEVSAESNRLVGELKLDRLLLELKHSNIGPFPVELLQDIMNYIVPILVLPRVNEKLQKGFPLPTPARVQLYNVVLQPHQNFLLFGADVVYK | – | no toxic effect | no toxic effect | non-toxic
